Drawing on patent publication US20040248184A1 (published 2004), this text covers binding result, Ki and Kd for four molecules.

The labels stand for the following.
B1: rat Reg-binding protein comprising 364 amino acids (cDNA isolated in Example 5, expression vector pCI-167.1) (receptor)
chain: MTGYTMLRNGGVGNGGQTCMLRWSNRIRLTWLSFTLFIILVFFPLIAHYYLTTLDEADEAGKRIFGPRAGNELCEVKHVLDLCRIRESVSEELLQLEAKRQELNSEIAKLNLKIEACKKSIENAKQDLLQLKNVISQTEHSYKELMAQNQPKLSLPIRLLPEKDDAGLPPPKVTRGCRLHNCFDYSRCPLTSGFPVFVYDSDQFAFGSYLDPLVKQAFQATVRANVYVTENAAIACLYVVLVGEIQEPAVLQPADLEKQLHSLPHWRTDGHNHVIINLSRKSDTQNLLYNVSTGRAMVAQSTFYAAQYRAGFDLVVSPLVHAMSEPNFMEIPRVTIFSLGRGEEEQEKLGVWRGRPPPGWGAGP
notes: also called 1.6 kbp cDNA clone
B2: human REG protein (REG Iα) (ligand, UniProt P05451 23-166, looked up)
chain: QEAQTELPQARISCPEGTNAYRSYCYYFNEDRETWVDADLYCQNMNSGNLVSVLTQAEGAFVASLIKESGTDDFNVWIGLHDPKKNRRWHWSSGSLVSYKSWGIGAPSSVNPGYCVSLTSSTGFQKWKDVPCEDKFSFVCKFKN
notes: mature; also called human REG Iα; REG Ia
B3: rat Reg protein (Reg I) (ligand, UniProt P10758 22-165, looked up)
chain: QEAEEDLPSARITCPEGSNAYSSYCYYFMEDHLSWAEADLFCQNMNSGYLVSVLSQAEGNFLASLIKESGTTAANVWIGLHDPKNNRRWHWSSGSLFLYKSWDTGYPNNSNRGYCVSVTSNSGYKKWRDNSCDAQLSFVCKFKA
modifications: as tracer labelled with 125I using Bolton-Hunter reagent; used unlabelled as competitor
notes: mature; also called rat Reg I
B4: rat Reg receptor (rat Reg-binding protein, rat homologue of human EXTL3/EXTR1), 919 amino acids, with N-terminal HA tag (receptor)
chain: YPYDVPDYAMTGYTMLRNGGVGNGGQTCMLRWSNRIRLTWLSFTLFIILVFFPLIAHYYLTTLDEADEAGKRIFGPRAGNELCEVKHVLDLCRIRESVSEELLQLEAKRQELNSEIAKLNLKIEACKKSIENAKQDLLQLKNVISQTEHSYKELMAQNQPKLSLPIRLLPEKDDAGLPPPKVTRGCRLHNCFDYSRCPLTSGFPVFVYDSDQFAFGSYLDPLVKQAFQATVRANVYVTENAAIACLYVVLVGEIQEPAVLQPADLEKQLHSLPHWRTDGHNHVIINLSRKSDTQNLLYNVSTGRAMVAQSTFYAAQYRAGFDLVVSPLVHAMSEPNFMEIPPQVPVKRKYLFTFQGEKIESLRSSLQEARSFEEEMEGDPPADYDDRIIATLKAVQDSKLDQVLVEFTCKNQPKPSLPTEWALCGEREDRLELLKLSTFALIITPGDPSLLISSGCATRLFEALEVGAVPVVLGEQVQLPYHDMLQWNEAALVVPKPRVTEVHFLLRSLSDSDLLAMRRQGRFLWETYFSTADSIFNTVLAMIRTRIQIPAAPIREEVAAEIPHRSGKAAGTDPNMADNGDLDLGPVETEPPYASPKYLRNFTLTVTDCYRSWNSAPGPFHLFPHTPFDPVLPSEAKFLGSGTGFRPIGGGAGGSGKEFQAALGGNVQREQFTVVMLTYEREEVLMNSLERLNGLPYLNKVVVVWNSPKLPSEDLLWPDIGVPIMVVRTEKNSLNNRFLPWNEIETEAILSIDDDAHLRHDEIMFGFRVWREARDRIVGFPGRYHAWDIPHQSWLYNSNYSCELSMVLTGAAFFHKYYAYLYSYVMPQAIRDMVDEYINCEDIAMNFLVSHITRKPPIKVTSRWTFRCPGCPQALSHDDSHFHERHKCINFFVKVYGYMPLLYTQFRVDSVLFKTRLPHDKTKCFKFI
notes: also called rEXTL3; pCI•rEXTL3

Experiment [1] has as its target B3. Briefly: binding of 10 nM [125I] rat Reg I to transiently transfected COS-7 cells on ice for 2 h, gamma counting, with (+) or without (-) 100-fold unlabelled rat Reg I. The method, then: Specifically, first, [¹²⁵I] rat Reg I stock solution (50 ng/μl=˜3.33 μM, 2.7×10⁵ cpm/μl) was diluted to 10 nM using DMEM. In addition, a diluted solution in which non-labeled Reg I stock solution (2250 ng/μl=150 μM) was added at 100-folds the concentration of [¹²⁵I] Reg I (1 μm), was prepared.
3 ml of 2.5×10⁵ cells/ml transfected COS cells were seeded onto 6 well plates and cultured at 37° C. for 2 days. After washing with ice-cold DMEM, 3 ml DMEM containing [¹²⁵I] rat Reg I was added (10 nM, final concentration). In a competitive inhibition experiment, 100-fold amount of non-labeled Reg I coexisted. After keeping on ice for 2 hours and then washing 3 times with DMEM, 1 ml/well of [100 mM Tris-HCl (pH 7.6), 1 mM EDTA, 1% Triton X-100] was added to lyze the cells, and [¹²⁵I] radioactivity was counted by using a γ-counter.

The target of experiment [2] is B4. Briefly: displacement of 125I rat Reg protein (competitor tracer) from CHO cells stably expressing the rat Reg receptor. The protocol: (§1) The rat Reg-binding protein (also called EXTL3/EXTR1) expression vector constructed in Example 8 or the control vector was introduced into COS-7 cells by electroporation and expressed transiently. CHO cells expressing the Reg receptor stably were isolated as described above. The cells (7.5×10⁵ cells) were washed with RPMI1640 (Roswell Park Memorial institute 1640 medium) and incubated on ice in the presence of ¹²⁵I labeled rat Reg protein (50 ng/ml, 1.5×10⁵ cpm/ml) with various concentrations of unlabeled rat Reg or human REG protein in RPMI1640 containing 1% fetal calf serum for 2 h. After washing with RPMI1640 three times, cells were solubilized by 1 ml of 100 mM Tris-HCl (pH 7.6), 1 mM EDTA and 1% Triton X-100. The radioactivity of the lysate was-determined by a γ-counter (Cobra, Packard). As a result, rat Reg binding protein expression vector-introduced-COS-7 cells bound to ¹²⁵I-labeled rat Reg protein and the binding was decreased by the addition of unlabeled Reg protein (FIG. 6).

For experiment [3], the target named is B4. Briefly: displacement of 125I rat Reg protein from CHO cells stably expressing the rat Reg receptor. The protocol: as §1
For experiment [4], the target named is B3. The experiment is described as follows: radioligand binding of 125I rat Reg protein to CHO cells stably expressing the rat Reg receptor. The protocol:
as §1

Experiment [5] deals with B2. The experiment is described as follows: competition binding on CHO cells stably expressing the rat Reg receptor (line RegR-#3): unlabelled human REG is varied against 125I rat Reg protein (50 ng/ml), gamma counting. The method, then: as §1

As for B1, in the experiment with rat Reg protein (Reg I) [1], the binding result is given as “binds”. As to B2, the affinity in experiment [2] corresponds to a Ki of 7.41 nM. In turn, B3 had a Ki in experiment [3] of 1.61 nM.

For the molecule B4, in the experiment with rat Reg protein (Reg I) [4], binding was characterised by a dissociation constant (Kd) of 4.41 nM. The binding result in experiment [5] is “binds”.
